Reference: paper PMC5482063

How the values were obtained:
[1] = target: mCherry-optoPlexin (chimera of Cry2 at the amino terminus, mCherry, and the intracellular domain of Plexin-B1 at the C terminus) (not stated | mouse) (UniProt Q96524); test: membrane co-recruitment assay (TIRF microscopy); living COS-7 cells co-expressing mVenus-RhoGEF, the mCherry-tagged Cry2 construct and CIB-CAAX; whole-cell blue light; increase of the RhoGEF's fluorescence relative to that of optoPlexin (relative co-recruitment); only cells with at least 30% increase in optoPlexin signal; also with Erlotinib
[2] = target: farnesylated Cryptochrome interacting basic helix-loop-helix 1 (CIB1-CAAX) (UniProt Q8GY61); test: light-induced membrane recruitment assay (TIRF microscopy); living COS-7 or MC3T3-E1 cells co-expressing the Cry2 construct and CIB-CAAX; illumination limited to a 5 μm-diameter circle (440 nm); 37 °C
[3] = target: farnesylated Cryptochrome interacting basic helix-loop-helix 1 (CIB1-CAAX) (UniProt Q8GY61); test: light-induced membrane recruitment assay (TIRF microscopy); living COS-7 cells co-expressing the Cry2 construct and CIB1-CAAX at the plasma membrane; whole-cell blue light (440 nm, 50 ms pulses at 10 s intervals); fluorescence after ten pulses normalised to that before illumination; 37 °C

Sequence of UniProt Q8GY61 (Q8GY61 whole entry): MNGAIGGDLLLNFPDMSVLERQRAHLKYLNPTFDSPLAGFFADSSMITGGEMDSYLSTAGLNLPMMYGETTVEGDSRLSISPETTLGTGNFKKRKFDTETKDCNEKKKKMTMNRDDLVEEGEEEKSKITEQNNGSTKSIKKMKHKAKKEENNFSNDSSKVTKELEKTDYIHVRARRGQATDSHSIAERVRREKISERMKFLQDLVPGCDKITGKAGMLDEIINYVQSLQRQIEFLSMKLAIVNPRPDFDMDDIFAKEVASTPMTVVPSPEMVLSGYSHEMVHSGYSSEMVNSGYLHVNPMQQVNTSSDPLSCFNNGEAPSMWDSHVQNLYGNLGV

Question: “mVenus-PDZ-RhoGEF (mVenus-PRG) (from UniProt O15085 1-1522) (natural protein)” was tested. Which relative co-recruitment (increase in fluorescence relative to that of optoPlexin) [1] did it give?
Answer: 26%

Question: Which fold increase of TIRF fluorescence intensity (membrane recruitment) [2] does the source give for “mCherry-optoPlexin (chimera of Cry2 at the amino terminus, mCherry, and the intracellular domain of Plexin-B1 at the C terminus) (from UniProt Q96524 1-612)” here?
Answer: 4 fold

Question: What about the fold increase of TIRF fluorescence intensity (membrane recruitment) [3] of the same substance?
Answer: 2 fold

Question: Which relative co-recruitment (increase in fluorescence relative to that of optoPlexin) [1] does the source give for “mVenus-Leukemia-associated RhoGEF (mVenus-LARG) (from UniProt Q9NZN5 1-1544) (natural protein)” here?
Answer: 60%
